Values quoted from earlier work as cited in PMC6678900.
One block for each substance: values may come before it.

Tests used:
TRAILR1 (Homo sapiens) = TRAILR1 (Homo sapiens) (UniProt O00220)
TRAILR2 (Homo sapiens) = TRAILR2 (Homo sapiens) (UniProt O14763)
TRAILR4 (Homo sapiens) = TRAILR4 (Homo sapiens) (UniProt Q9UBN6)

Kd (TRAILR1 (Homo sapiens)): > 1000 nM
Substance: TRAILR1 (from UniProt O00220)

Kd (TRAILR2 (Homo sapiens)): > 1000 nM
Substance: TRAILR2 (from UniProt O14763)

Kd (TRAILR4 (Homo sapiens)): > 1000 nM
Substance: TRAILR4 (from UniProt Q9UBN6)
